Article PMC5760745, “Nuclear, Cytosolic, and Surface-Localized Poly(A)-Binding Proteins of Plasmodium yoelii”

Assays:
PyPABP1 [1] = target: T1, PyPABP1 (Plasmodium yoelii 17XNL, UniProt V7PUC0 1-841); test: EMSA; apparent Kd; excess tRNA, 5 mM Mg2+; EMSA/FP: 10 mM Tris-Cl pH 7.5, 5 mM MgCl2, 55 mM KCl, 2 ug tRNA, 1 mM DTT, 0.5 U/ul SUPERase-In, 2.5% glycerol, RT 20 min; ITC: 10 mM HEPES pH 7.5, 100 mM KCl; details: protein: recombinant; tags: N-terminal GST (thrombin-cleavable), C-terminal 6xHis (TEV-cleavable); single strand
T1 sequence: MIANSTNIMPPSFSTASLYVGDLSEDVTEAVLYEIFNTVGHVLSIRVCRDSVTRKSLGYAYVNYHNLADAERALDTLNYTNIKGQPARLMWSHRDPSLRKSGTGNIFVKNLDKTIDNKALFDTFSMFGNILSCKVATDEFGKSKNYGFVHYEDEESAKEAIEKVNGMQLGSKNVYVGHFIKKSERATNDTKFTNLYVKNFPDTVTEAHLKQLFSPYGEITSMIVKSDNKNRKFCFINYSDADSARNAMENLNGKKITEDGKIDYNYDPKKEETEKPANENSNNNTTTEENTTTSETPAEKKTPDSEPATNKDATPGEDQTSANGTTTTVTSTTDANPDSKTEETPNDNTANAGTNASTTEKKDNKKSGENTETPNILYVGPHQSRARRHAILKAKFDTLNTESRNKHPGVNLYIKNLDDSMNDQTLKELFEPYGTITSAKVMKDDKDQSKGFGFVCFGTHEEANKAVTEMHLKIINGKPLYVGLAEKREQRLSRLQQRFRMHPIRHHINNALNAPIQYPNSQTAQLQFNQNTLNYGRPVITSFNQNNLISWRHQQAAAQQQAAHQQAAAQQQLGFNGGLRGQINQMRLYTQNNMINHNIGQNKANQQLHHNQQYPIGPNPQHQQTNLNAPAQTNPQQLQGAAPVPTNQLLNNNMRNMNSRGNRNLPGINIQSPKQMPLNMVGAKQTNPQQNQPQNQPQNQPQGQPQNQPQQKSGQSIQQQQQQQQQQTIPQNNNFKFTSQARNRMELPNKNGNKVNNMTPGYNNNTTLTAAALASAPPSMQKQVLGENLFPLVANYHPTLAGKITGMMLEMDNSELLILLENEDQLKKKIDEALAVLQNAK

PyPABP2 [2] = target: T2, PyPABP2 (Plasmodium yoelii, UniProt UPI0004EF7F20 1-199); test: as above; details: protein: recombinant; tags: N-terminal GST (purified via GST); vector pSL0220 also encodes C-terminal 6xHis; single strand
T2 sequence: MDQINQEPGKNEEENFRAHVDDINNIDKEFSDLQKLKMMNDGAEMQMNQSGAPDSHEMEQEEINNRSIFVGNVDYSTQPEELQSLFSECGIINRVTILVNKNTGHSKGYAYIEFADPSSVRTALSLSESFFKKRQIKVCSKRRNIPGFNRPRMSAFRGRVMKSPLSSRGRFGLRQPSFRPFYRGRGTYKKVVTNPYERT

PyPABP1 [3] = target: T1, PyPABP1; test: fluorescence polarization; apparent Kd; excess tRNA, 5 mM Mg2+; EMSA/FP: 10 mM Tris-Cl pH 7.5, 5 mM MgCl2, 55 mM KCl, 2 ug tRNA, 1 mM DTT, 0.5 U/ul SUPERase-In, 2.5% glycerol, RT 20 min; ITC: 10 mM HEPES pH 7.5, 100 mM KCl; details: protein: recombinant; tags: N-terminal GST (thrombin-cleavable), C-terminal 6xHis (TEV-cleavable); single strand
PyPABP2 [4] = target: T2, PyPABP2; test: as above; details: protein: recombinant; tags: N-terminal GST (purified via GST); vector pSL0220 also encodes C-terminal 6xHis; single strand
PyPABP1 [5] = target: T1, PyPABP1; test: ITC; 5 mM Mg2+; second of two protein preparations; EMSA/FP: 10 mM Tris-Cl pH 7.5, 5 mM MgCl2, 55 mM KCl, 2 ug tRNA, 1 mM DTT, 0.5 U/ul SUPERase-In, 2.5% glycerol, RT 20 min; ITC: 10 mM HEPES pH 7.5, 100 mM KCl; details: protein: recombinant; tags: N-terminal GST (thrombin-cleavable), C-terminal 6xHis (TEV-cleavable); single strand
PyPABP1 [6] = target: T1, PyPABP1; test: ITC; 5 mM Mg2+; first of two protein preparations; EMSA/FP: 10 mM Tris-Cl pH 7.5, 5 mM MgCl2, 55 mM KCl, 2 ug tRNA, 1 mM DTT, 0.5 U/ul SUPERase-In, 2.5% glycerol, RT 20 min; ITC: 10 mM HEPES pH 7.5, 100 mM KCl; details: protein: recombinant; tags: N-terminal GST (thrombin-cleavable), C-terminal 6xHis (TEV-cleavable); single strand

B1: biotin-poly(A) 25-mer (ssRNA)
RNA: AAAAAAAAAAAAAAAAAAAAAAAAA
Kd (PyPABP1 [1]): 185 nM
Kd (PyPABP2 [2]): 108 nM

B2: fluorescein-poly(A) 25-mer (ssRNA)
RNA: AAAAAAAAAAAAAAAAAAAAAAAAA
Kd (PyPABP1 [3]): 8 nM
Kd (PyPABP2 [4]): 104 nM

B3: poly(A) 25-mer (ssRNA)
RNA: AAAAAAAAAAAAAAAAAAAAAAAAA
Kd (PyPABP1 [5]): 48 nM
Kd (PyPABP1 [6]): 33 nM
